Biological target: CD26 protein (recombinant human CD26) (human) (UniProt P27487)
Assay: BLI (Octet QKe), CD26 amine-coupled on AR2G sensor, antibody at 181.8 nM

B1: 17G108 (anti-CD26-CD3 chimeric bispecific antibody derived from No. 160 mouse antibody) (bispecific antibody)
chain: DIVMTQAAPSVPVTPGESVSISCRSSKSLLHSNGNTYLYWFLQRPGQSPQLLISQMSNLASGIPDRFSGSGSGTAFTLRISRVEAEDVGVYYCMQHLEYPFTFGSGTKLEIKGGGGSGGGGSGGGGSEVQLQQSGAELVKPGASVKLSCTASGFNIKDNYMNWVKQRPEQGLEWIGRIDPANGNPKYDPKFQGKATITADTSSNTAYLQLSSLTSEDTAVYYCTRWIYYYGSRYEWYFDVWGAGTTVTVSSGGGGSDVQLVQSGAEVKKPGASVKVSCKASGYTFTRYTMHWVRQAPGQGLEWIGYINPSRGYTNYADSVKGRFTITTDKSTSTAYMELSSLRSEDTATYYCARYYDDHYCLDYWGQGTTVTVSSGGGGSGGGGSGGGGSDIVLTQSPATLSLSPGERATLSCRASQSVSYMNWYQQKPGKAPKRWIYDTSKVASGVPARFSGSGSGTDYSLTINSLEAEDAATYYCQQWSSNPLTFGGGTKVEIK
Response: 0.0395

— patent US20250179208A1
